Test results taken from article PMC8623809.

Assays:
[1] = target: porcine gastric mucin (PGM), Sigma Type III; experiment: Intrinsic tryptophan fluorescence quenching (excitation 280 nm, emission maximum 326 nm), Stern-Volmer analysis; conditions: 100 mM PBS (composition not further stated), 100 mM PBS adjusted with HCl to pH 7, 5 and 3 (same buffer at all pH values)
[2] = target: bovine submaxillary mucin (BSM), Sigma Type I-S; experiment: as above; conditions: 100 mM PBS (composition not further stated), 100 mM PBS adjusted with HCl to pH 7, 5 and 3 (same buffer at all pH values)

Ksv (Stern-Volmer constant, static quenching) (not printed (uM^-1 inferred)) ([1]; pH 3): 1.25 | Ksv (Stern-Volmer constant, static quenching) (not printed (uM^-1 inferred)) ([1]; pH 5): 0.92 | Ksv (Stern-Volmer constant, static quenching) (not printed (uM^-1 inferred)) ([1]; pH 7): 1.08 | Ksv (Stern-Volmer constant, static quenching) (not printed (uM^-1 inferred)) ([2]; pH 3): 0.19 | Ksv (Stern-Volmer constant, static quenching) (not printed (uM^-1 inferred)) ([2]; pH 5): 0.15 | Ksv (Stern-Volmer constant, static quenching) (not printed (uM^-1 inferred)) ([2]; pH 7): 0.23
Substance: beta-lactoglobulin (BLG)
